Reference: patent US10864269B2, “Therapeutic combinations comprising anti-CD73 antibodies and uses thereof” (MedImmune Limited, priority 2014, dated 2020)
pKd: −log10 of the molar value.

Experiments:
[1] = tested on: native CD73, MK-1 cells; experiment: Flow cytometry binding to native CD73, MK-1 cells; details: as measured by flow cytometry; read-out: KD, CD73 on the surface of cynomolgus MK-1 cells
Method: Binding of MEDI9447 to native CD73 expressed on human, murine, and cynomolgus monkey cell lines was characterized by flow cytometry. The cells were incubated with various concentrations of MEDI9447 and antibody binding was monitored with and fluorophore-labeled anti-human Fc antibody. A plot of the median fluorescence intensity as a function of the MEDI9447 concentration was fitted nonlinearly using a one-site binding isotherm model to calculate the equilibrium dissociation constant.
(§1) The affinity of enhanced anti-CD73 antibodies (in IgG1-TM format) to human, murine, and cynomolgus CD73 was determined by flow cytometry and surface plasmon resonsance (SPR) (Table 13). The enhanced antibodies had pM affinity to cellular and recombinant CD73 from the three species.
All flow cytometry experiments were run at 4C and reagents were prepared in PBS/1% FBS buffer. 10,000 cells were incubated with test antibody in 50 uL volume for 4 hours. Cells were washed twice and incubated in 50 uL goat anti-human IgGFc-AlexaFluor647 conjugate for 15 minutes. Cells were washed, resuspended in buffer supplemented with Dapi, and analyzed on a flow cytometer. […] For the determination of KD values, a plot of the median fluorescence intensity as a function of test antibody concentration was fitted nonlinearly using a one site binding isotherm model.

[2] = target: T1, murine CD73 (Mus musculus, UniProt Q61503); experiment: Solution binding, murine CD73; details: as measured by solution binding
T1 sequence (Q61503 29-551): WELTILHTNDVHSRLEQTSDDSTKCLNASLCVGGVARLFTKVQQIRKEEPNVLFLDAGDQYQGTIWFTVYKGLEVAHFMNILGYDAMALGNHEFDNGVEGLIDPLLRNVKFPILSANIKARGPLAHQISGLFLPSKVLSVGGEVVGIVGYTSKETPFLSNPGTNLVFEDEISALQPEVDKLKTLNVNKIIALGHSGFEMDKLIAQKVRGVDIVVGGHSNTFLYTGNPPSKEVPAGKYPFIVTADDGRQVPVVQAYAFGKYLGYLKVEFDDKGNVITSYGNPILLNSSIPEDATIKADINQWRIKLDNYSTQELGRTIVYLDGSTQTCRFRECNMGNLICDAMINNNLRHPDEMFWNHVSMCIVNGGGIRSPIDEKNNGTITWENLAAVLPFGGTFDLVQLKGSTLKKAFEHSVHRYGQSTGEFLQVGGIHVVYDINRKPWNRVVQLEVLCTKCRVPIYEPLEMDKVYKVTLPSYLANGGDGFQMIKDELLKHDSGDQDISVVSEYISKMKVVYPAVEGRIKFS

[3] = target: T2, Murine CD73 ECD (Mus musculus, UniProt Q61503); experiment: Surface plasmon resonance (ProteOn), murine CD73; format: binding; details: SPR
T2 construct: made in house; host or cells: mammalian cells
T2 sequence (Q61503 29-551 limits assumed): T1 sequence (Q61503 29-551)
Method: A ProteOn XPR36 instrument was used to characterize binding of MEDI9447 to human, murine, and cynomolgus CD73 ECD. MEDI9447 was affinity-captured using an anti-human Fc antibody. CD73 ECD was in the mobile phase. The association and dissociation of CD73 to MEDI9447 could be accurately described with the Langmuir 1:1 model.
as §1

[4] = tested on: MDA-MB-231 cells; experiment: FabZAP antibody internalization assay, MDA-MB-231; format: cell-based, human; details: MDA-MB-231, 3 days
Method: Internalization of MEDI9447 into cell lines MDA-MB-231 (human mammary carcinoma) and 4T1 (murine mammary carcinoma) was assessed using a human Antibody Internalization Kit that is sold commercially as the FabZAP assay (Advanced Targeting Systems, San Diego Calif.). Serial dilutions of MEDI9447 or negative control antibody R347 were pre-incubated with 40 nM FabZAP reagent (Fab fragment of a polyclonal anti-human IgG antibody conjugated to the cytotoxic protein saporin) and then added to the cell lines. After 3 days in culture, cell proliferation was measured using a luminescent cell viability assay sold commercially as the CELLTITER-GLO® assay (Promega, Madison Wis.). This assay was used to calculate EC50 values and maximum toxicity. […]
Cell proliferation of MDA-MB-231 cells and 4T1 cells treated with serial dilutions of test antibody and FabZAP reagent was measured by CELLTITER-GLO® assay (FIG. 2). The signal from the negative control antibody R347 in the CELLTITER-GLO® assay was subtracted from the signal of MEDI9447 and the EC50 value and maximum toxicity were calculated by fitting the dose-response curve using non-linear regression analysis.
1,000 cells/well were cultured in 96 well plates in RPMI/10% FBS. […] After 3 days incubation at 37C, the cell proliferation was measured using the CELLTITER-GLO® assay (Promega, Madison Wis.).

For “MEDI9447: IgG1 with CD730010-derived VL of SEQ ID NO: 68 and VH of SEQ ID NO: 82”, the pKd [1] was roughly 10.10, the pKd [2] was roughly 9.89 and the ka [3] was 2.41e+06 M⁻¹ s⁻¹. It also gave a kd [3] of 2.32e-06 s⁻¹ and a maximum toxicity [4] of 97%.
